Results published in patent US20210206866A1 (EUCURE BEIJING BIOPHARMA, published 2021).

T1: mouse OX40 on transfected CHO cells (mouse, UniProt P47741 20-272)
T1 construct: also called mOX40
T1 sequence: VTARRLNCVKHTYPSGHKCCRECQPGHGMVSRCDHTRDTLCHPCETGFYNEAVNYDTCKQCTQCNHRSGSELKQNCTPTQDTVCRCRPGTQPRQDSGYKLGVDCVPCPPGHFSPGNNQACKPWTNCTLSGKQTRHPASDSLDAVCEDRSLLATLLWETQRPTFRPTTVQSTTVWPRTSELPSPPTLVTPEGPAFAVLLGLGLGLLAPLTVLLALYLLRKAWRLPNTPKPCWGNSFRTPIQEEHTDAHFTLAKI

T2: Human OX40 protein (hOX40-His) (human, UniProt P43489 29-214)
T2 construct: Soluble analyte in the SPR assay; also called His-tagged human OX40; not shown: His tag
T2 sequence: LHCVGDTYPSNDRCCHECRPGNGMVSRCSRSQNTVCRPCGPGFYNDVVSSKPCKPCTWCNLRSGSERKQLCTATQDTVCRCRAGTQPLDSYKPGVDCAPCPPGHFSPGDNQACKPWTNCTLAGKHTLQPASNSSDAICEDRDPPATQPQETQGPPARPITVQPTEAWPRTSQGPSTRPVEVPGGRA

B1: mouse anti-hOX40 antibody 07-9H3 (antibody, V domains shown)
VH: QVQLKQSGPGLVQPSQSLSITCTVSGFSLTSYGVLWVRQPPGKGLEWLGVIWSGGSTDYNAAFISRLSISKDNSKSQVFFKMNSLQADDTAIYYCAREEFGYWGQGTLVTVSA
VL: DIQMTQTTSSLSASLGDRVTISCRASQDINNYLNWYQQKPDGTVKLLIYYTSRLHSGVPSRFSGSGSGTDYSLTISNLEQEDIATYFCQQTNTLPWTFGGGTKLEIK
notes: Mouse IgG purified from ascites fluid
B2: 9H3-H2K2-IgG1 (antibody, V domains shown)
VH: QVQLVESGGGVVQPGRSLRISCAVSGFSLTSYGVLWVRQAPGKGLEWVAVIWSGGSTDYNAAFISRLTISRDNSKSTVYFQMNSLRAEDTAVYYCAREEFGYWGQGTLVTVSS
VL: DIQMTQSPSSLSASVGDRVTITCRASQDINNYLNWYQQKPGGAVKLLIYYTSRLHSGVPSRFSGSGSGTDFTLTISSLQPEDIATYYCQQTNTLPWTFGGGTKLEIKR
notes: Humanized, with human IgG1 constant domains; also called 9H3 humanized antibody H2K2
B3: 9H3-H2K3-IgG1 (antibody, V domains shown)
VH: QVQLVESGGGVVQPGRSLRISCAVSGFSLTSYGVLWVRQAPGKGLEWVAVIWSGGSTDYNAAFISRLTISRDNSKSTVYFQMNSLRAEDTAVYYCAREEFGYWGQGTLVTVSS
VL: DIQMTQSPSSLSASVGDRVTITCRASQDINNYLNWYQQKPGGAVKLLIYYTSRLHSGVPSRFSGSGSGTDYTLTISSLQPEDIATYFCQQTNTLPWTFGGGTKLEIKR
notes: Humanized, with human IgG1 constant domains; also called 9H3 humanized antibody H2K3
B4: 9H3-H3K2-IgG1 (antibody, V domains shown)
VH: QVQLVESGGGVVQPGRSLRISCAVSGFSLTSYGVLWVRQAPGKGLEWLGVIWSGGSTDYNAAFISRLTISRDNSKSTVYFQMNSLRAEDTAVYYCAREEFGYWGQGTLVTVSS
VL: DIQMTQSPSSLSASVGDRVTITCRASQDINNYLNWYQQKPGGAVKLLIYYTSRLHSGVPSRFSGSGSGTDFTLTISSLQPEDIATYYCQQTNTLPWTFGGGTKLEIKR
notes: Humanized, with human IgG1 constant domains; also called 9H3 humanized antibody H3K2
B5: 9H3-H3K3-IgG1 (antibody, V domains shown)
VH: QVQLVESGGGVVQPGRSLRISCAVSGFSLTSYGVLWVRQAPGKGLEWLGVIWSGGSTDYNAAFISRLTISRDNSKSTVYFQMNSLRAEDTAVYYCAREEFGYWGQGTLVTVSS
VL: DIQMTQSPSSLSASVGDRVTITCRASQDINNYLNWYQQKPGGAVKLLIYYTSRLHSGVPSRFSGSGSGTDYTLTISSLQPEDIATYFCQQTNTLPWTFGGGTKLEIKR
notes: Humanized, with human IgG1 constant domains; also called 9H3 humanized antibody H3K3
B6: 9H3-H2K1-IgG1 (antibody, V domains shown)
VH: QVQLVESGGGVVQPGRSLRISCAVSGFSLTSYGVLWVRQAPGKGLEWVAVIWSGGSTDYNAAFISRLTISRDNSKSTVYFQMNSLRAEDTAVYYCAREEFGYWGQGTLVTVSS
VL: DIQMTQSPSSLSASVGDRVTITCRASQDINNYLNWYQQKPGGAVKLLIYYTSRLHTGVPSRFSGSGSGTDFTLTISSLQPEDIATYYCQQTNTLPWTFGGGTKLEVKR
notes: Humanized, with human IgG1 constant domains (CL, CH1, CH2, CH3); also called 9H3 humanized antibody H2K1
B7: 9H3-H3K1-IgG1 (antibody, V domains shown)
VH: QVQLVESGGGVVQPGRSLRISCAVSGFSLTSYGVLWVRQAPGKGLEWLGVIWSGGSTDYNAAFISRLTISRDNSKSTVYFQMNSLRAEDTAVYYCAREEFGYWGQGTLVTVSS
VL: DIQMTQSPSSLSASVGDRVTITCRASQDINNYLNWYQQKPGGAVKLLIYYTSRLHTGVPSRFSGSGSGTDFTLTISSLQPEDIATYYCQQTNTLPWTFGGGTKLEVKR
notes: Humanized, with human IgG1 constant domains; also called 9H3 humanized antibody H3K1
B8: 9A4-mHvKv-IgG1 (antibody, V domains shown)
VH: EVQLQQFGAELVKPGASVKISCKASGYTFTDYNMDWVKQSHGKSLEWIGDINPNYDSTSYNQKFKGKATLTVDKSSSTAYMELRSLTSEDTAVYYCARGGYGNYVDYFDYWGQGTTLTVSS
VL: NIVMTQSPKSMSMSVGERVTLSCKASENVVTYVSWYQQKPEQSPKLLIYGASNRYTGVPDRFTGSGSATDFTLTISSVQAEDLADYHCGQSYSYPYTFGGGTKLEIK
notes: Chimeric: mouse 9A4 variable domains with human IgG1 constant domains; also called 9A4 chimeric antibody
B9: 9A4 (mouse antibody) (antibody, V domains shown)
VH: EVQLQQFGAELVKPGASVKISCKASGYTFTDYNMDWVKQSHGKSLEWIGDINPNYDSTSYNQKFKGKATLTVDKSSSTAYMELRSLTSEDTAVYYCARGGYGNYVDYFDYWGQGTTLTVSS
VL: NIVMTQSPKSMSMSVGERVTLSCKASENVVTYVSWYQQKPEQSPKLLIYGASNRYTGVPDRFTGSGSATDFTLTISSVQAEDLADYHCGQSYSYPYTFGGGTKLEIK
notes: also called 07-9A4
B10: 5C1-mHvKv-IgG1 (antibody, V domains shown)
VH: EVQLQQSGTVLARPGASVKMSCKASGYSFTSYWMHWVKQRPGQGLEWIGTIYPGNSDTSNNQKFKGKAKLTAVTSASTAYMELSSLTNEDSAVYYCTTFYYRYEDYYAMDYWGQGTSVTVSS
VL: DIVMTQSHKFMSTSVGDRVSITCKASQDVNTAVAWYQQKPGQSPKLLIYSASYRYTGVPDRFTGSGSGTDFTFTISSVQAEDLAVYYCQQHYSTPFTFGSGTKLEIK
notes: Chimeric: mouse 5C1 variable domains with human IgG1 constant domains; also called 5C1 chimeric antibody
B11: 9H3-mHvKv-IgG1 (antibody, V domains shown)
VH: QVQLKQSGPGLVQPSQSLSITCTVSGFSLTSYGVLWVRQPPGKGLEWLGVIWSGGSTDYNAAFISRLSISKDNSKSQVFFKMNSLQADDTAIYYCAREEFGYWGQGTLVTVSA
VL: DIQMTQTTSSLSASLGDRVTISCRASQDINNYLNWYQQKPDGTVKLLIYYTSRLHSGVPSRFSGSGSGTDYSLTISNLEQEDIATYFCQQTNTLPWTFGGGTKLEIK
notes: Chimeric: mouse 9H3 variable domains with human IgG1 constant domains (CL, CH1, CH2, CH3); also called 9H3 chimeric antibody; chimeric anti-hOX40 antibody
B12: 5D10-mHvKv-IgG1 (antibody, V domains shown)
VH: QVQLKESGPGLVAPSQSLSITCTVSGFSLTSYGVHWIRQPPGKGLEWLGVIWAGGNTNYNSALMSRLSISKDNSKSQVFLKMNSLQTDDTAMYNCASYDGYYGWFAYWGQGTLVTVSV
VL: DIQMTQTTSSLSASLGDRVTISCRASQDISYYLNWYQQKPDGTVKLLIYYTSRLHSGVPSRFSGSGSGTDYSLTISNLEQEDIATYFCQQGHTLPWTFGGGTKLEIK
notes: Chimeric: mouse 5D10 variable domains with human IgG1 constant domains; also called 5D10 chimeric antibody

The binders below were run against chimeric (mouse and human) OX40 on transfected CHO cells (chimeric (mouse and human)) (assay: flow cytometry, CHO-chiOX40 cells; antibody at 1 ug/ml; anti-mIgG Fc-FITC (x axis) against SSC-H; NC panel of the same cells 2.78%).
For B1, the % of cells in the anti-mouse-IgGFc-FITC positive gate was 33.9%.

These binders were tested against T1, mouse OX40 on transfected CHO cells (assay: flow cytometry, CHO-mOX40 cells; anti-mIgG Fc-FITC against SSC-H).
Protocol: 25 ul CHO cells were added to each well. 25 ul purified anti-hOX40 antibodies (1 ug/ml) (9H3 or “07-9H3”) were added to each well and were incubated at 4° C. for 30 minutes.
After being washed with PBS (1200 rmp, 5 min) twice, 50 ul of anti-mouse IgG Fc antibody fluorescein isothiocyanate conjugate (anti-mIgG Fc-FITC) with 1:500 dilution was added into each well and was incubated at 4° C. for 30 minutes, followed by PBS wash (1200 rmp, 5 min). The signals for FITC were determined by flow cytometry.
B1: no binding.

What follows are binders tested against T2, Human OX40 protein (hOX40-His) (assay: SPR, Biacore T200, antibody captured on Protein A chip, hOX40-His as analyte, 1:1 Langmuir fit).
Protocol: The antibodies were tested for hOX40 binding. The affinity of an antibody was determined by surface plasmon resonance (Biacore T200 biosensor, Biacore, INC, Piscataway N.J.) equipped with pre-immobilized Protein A sensor chips.
Anti-hOX40 antibody 9H3-mHvKv-IgG1 (1 μg/mL) were injected into Biacore T200 biosensor at 10 μL/min for 25 seconds to achieve to a desired protein density (about 112 response units (RU)). […] Dissociation was monitored for 300 seconds. The chip was regenerated after the last injection of each titration with Glycine (pH 2.0, 30 μL/min for 12 seconds).
The same method with necessary appropriate adjustments for parameters (e.g., concentrations of the antibodies) were performed for all other tested antibodies.
B2 gave a Kd of 3.84 nM, a koff of 0.00087 s⁻¹ and a kon of 227000 M⁻¹ s⁻¹.
For B3, the Kd was 1.55 nM, the koff was 0.000393 s⁻¹ and the kon was 254000 M⁻¹ s⁻¹.
With B4 the Kd was 3.34 nM, the koff was 0.000642 s⁻¹ and the kon was 192000 M⁻¹ s⁻¹.
For B5, the Kd was 1.92 nM, the koff was 0.000451 s⁻¹ and the kon was 235000 M⁻¹ s⁻¹.
B6 gave a Kd of 3.35 nM, a koff of 0.000748 s⁻¹ and a kon of 223000 M⁻¹ s⁻¹.
For B7, the Kd was 2.49 nM, the koff was 0.000606 s⁻¹ and the kon was 244000 M⁻¹ s⁻¹.
In the case of B8, the Kd is reported as 55.3 nM, the koff is reported as 0.00669 s⁻¹ and the kon is reported as 121000 M⁻¹ s⁻¹.
Binder B9 has a Kd of 21.6 nM, a koff of 0.00192 s⁻¹ and a kon of 89100 M⁻¹ s⁻¹.
B10 gave a Kd of 29.8 nM, a koff of 0.00163 s⁻¹ and a kon of 54900 M⁻¹ s⁻¹.
Work on B11 yielded a Kd of 2.31 nM, a koff of 0.000594 s⁻¹ and a kon of 258000 M⁻¹ s⁻¹.
For B12, the Kd was 46.5 nM, the koff was 0.0147 s⁻¹ and the kon was 317000 M⁻¹ s⁻¹.
